From article PMC7921410, “Structure of mammalian Mediator complex reveals Tail module architecture and interaction with a conserved core” (Nature Communications, 2021) come the findings set out here.

The labels stand for the following.
B2: MED17 (natural protein, mouse (Mus musculus; endogenous in CH12), UniProt Q8VCD5 1-649, looked up)
chain: MSGVRAVRISIESACEKQVQEVGLDGTETYLQPLSMSQNLARLAQRIDFSQGSGSEEEEAAGPDGDAPDWGGAGADQDDEEGLVKFQPSLWPWDSVRNNLRSALTEMCVLYDVLSIVRDKKFMTLDPVSQDALPPKQSPQTLQLISKKKSLAGAAQILLKGAERLTKSVAENQENKLQRDFNSELLRLRQHWKLRKVGDKILGDLSYRSAGSLFPHHGTFEVIKNTDIDLDKKIPEDYCPLDVQIPSDLEGSAYIKVSIQKQAPDIGDLGTVNLFKRPLPKSKPGSPHWQTKLEAAQNVLLCKEIFAQLSREAVQIKSQIPHIVVKNQIISQPFPSLQLSISLCHSSDDKKSQKCAAEKPGQEDHLYVLEHNLHLLIREFHKQTLSSIVMPHPASAPFGHKRMRLSGPQAFDKNEINSIQSTEGLLEKIIKQAKHIFLRSRTAATIDSLASRIEDPQIQAHWSNINDVYESSVKVLITSQGYEQICKSIQLQLNIGVEQVRVVHRDGRVIMLSHQEQELQDFLLSQMSQHQVHAVQQLAKVMGWQVLSFSNHVGLGPIESIGNASAITVASPSGDYAISVRNGPESGSKIMVQFPRNQCKDLPKSDVLQDSKWSHLRGPFKEVQWNKMEGRNFVYKMELLMSALSPCLL
notes: MED17, Mus musculus, endogenous Head module scaffold subunit of Mediator; source: endogenous, CH12 mouse B lymphoma nuclear extract; immunopurified as part of Mediator (FLAG M2 agarose, FLAG peptide elution)
B3: MED27 (natural protein, mouse (Mus musculus; endogenous in CH12), UniProt Q9DB40 1-311, looked up)
chain: MADVLSVGVNLEAFSQAISAIQALRSSVSRVFDCLKDGMRNKETLEGREKAFIANFQDNLHSVNRDLNELERLSNLVGKPSENHPLHNSGLLSLDPVQDKTPLYSQLLQAYKWSNKLQYHAGLASGLLNQQSLKRSANQMGVSAKRRPKAQPTTLVLPPQYVDDVISRIDRMFPEMSIHLSRPNGTSAMLLVTLGKVLKVIVVMRSLFIDRTIVKGYNESVYTEDGKLDIWSKSSYQVFQKVTDHATTALLHYQLPQMPDVVVRSFMTWLRSYIKLFQAPCQRCGKFLQDGLPPTWRDFRTLEAFHDTCRQ
notes: MED27, Mus musculus, endogenous upper Tail subunit of Mediator; source: endogenous, CH12 mouse B lymphoma nuclear extract; immunopurified as part of Mediator (FLAG M2 agarose, FLAG peptide elution)

Holding throughout (assay): cryo-EM structure; endogenous mouse Mediator immunopurified from CH12 nuclear extract through 3×FLAG-MED19 or 3×FLAG-MED25; eluted in 50 mM HEPES pH 7.9, 100 mM KCl, 5% glycerol, 1 mM EDTA, 0.005% NP-40; map at 4.0 Å overall, focused refinement of the MED1 and knob/hook ends (6-10 Å)
Holding throughout (conditions): both partners purified

One test deals with T1, MED15 (mouse (Mus musculus; endogenous in CH12), UniProt Q924H2 1-789).
T1 construct: MED15, Mus musculus, endogenous lower Tail subunit of Mediator; only the C-terminal portion (from residue 620) is seen in the map; source: endogenous, CH12 mouse B lymphoma nuclear extract; immunopurified as part of Mediator (FLAG M2 agarose, FLAG peptide elution)
T1 sequence (looked up): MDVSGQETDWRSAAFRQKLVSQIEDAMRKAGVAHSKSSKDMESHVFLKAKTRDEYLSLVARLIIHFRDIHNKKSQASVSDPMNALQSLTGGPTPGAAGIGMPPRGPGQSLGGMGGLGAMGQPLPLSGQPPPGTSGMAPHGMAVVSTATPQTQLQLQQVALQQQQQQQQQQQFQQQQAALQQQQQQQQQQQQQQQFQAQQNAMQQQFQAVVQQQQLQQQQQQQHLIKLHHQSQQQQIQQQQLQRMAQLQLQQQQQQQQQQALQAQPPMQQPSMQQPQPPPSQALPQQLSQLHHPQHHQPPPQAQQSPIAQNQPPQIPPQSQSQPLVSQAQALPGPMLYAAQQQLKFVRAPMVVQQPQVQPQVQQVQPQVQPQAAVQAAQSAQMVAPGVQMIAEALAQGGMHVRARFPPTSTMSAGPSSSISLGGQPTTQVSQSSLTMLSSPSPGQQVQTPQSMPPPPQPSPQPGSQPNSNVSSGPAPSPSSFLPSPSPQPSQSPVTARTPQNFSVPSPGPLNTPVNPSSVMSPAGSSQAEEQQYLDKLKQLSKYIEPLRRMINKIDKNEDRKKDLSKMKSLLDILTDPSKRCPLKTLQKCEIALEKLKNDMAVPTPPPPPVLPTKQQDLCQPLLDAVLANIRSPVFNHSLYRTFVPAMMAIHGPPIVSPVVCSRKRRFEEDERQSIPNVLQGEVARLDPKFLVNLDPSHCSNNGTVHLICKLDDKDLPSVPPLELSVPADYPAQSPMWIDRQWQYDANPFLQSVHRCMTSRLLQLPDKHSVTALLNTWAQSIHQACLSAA

The test “MED27” has as its target B3.
A further test addresses T2, MED16 (mouse (Mus musculus; endogenous in CH12), UniProt Q6PGF3 1-828).
T2 construct: MED16, Mus musculus, endogenous lower Tail subunit of Mediator; source: endogenous, CH12 mouse B lymphoma nuclear extract; immunopurified as part of Mediator (FLAG M2 agarose, FLAG peptide elution)
T2 sequence (looked up): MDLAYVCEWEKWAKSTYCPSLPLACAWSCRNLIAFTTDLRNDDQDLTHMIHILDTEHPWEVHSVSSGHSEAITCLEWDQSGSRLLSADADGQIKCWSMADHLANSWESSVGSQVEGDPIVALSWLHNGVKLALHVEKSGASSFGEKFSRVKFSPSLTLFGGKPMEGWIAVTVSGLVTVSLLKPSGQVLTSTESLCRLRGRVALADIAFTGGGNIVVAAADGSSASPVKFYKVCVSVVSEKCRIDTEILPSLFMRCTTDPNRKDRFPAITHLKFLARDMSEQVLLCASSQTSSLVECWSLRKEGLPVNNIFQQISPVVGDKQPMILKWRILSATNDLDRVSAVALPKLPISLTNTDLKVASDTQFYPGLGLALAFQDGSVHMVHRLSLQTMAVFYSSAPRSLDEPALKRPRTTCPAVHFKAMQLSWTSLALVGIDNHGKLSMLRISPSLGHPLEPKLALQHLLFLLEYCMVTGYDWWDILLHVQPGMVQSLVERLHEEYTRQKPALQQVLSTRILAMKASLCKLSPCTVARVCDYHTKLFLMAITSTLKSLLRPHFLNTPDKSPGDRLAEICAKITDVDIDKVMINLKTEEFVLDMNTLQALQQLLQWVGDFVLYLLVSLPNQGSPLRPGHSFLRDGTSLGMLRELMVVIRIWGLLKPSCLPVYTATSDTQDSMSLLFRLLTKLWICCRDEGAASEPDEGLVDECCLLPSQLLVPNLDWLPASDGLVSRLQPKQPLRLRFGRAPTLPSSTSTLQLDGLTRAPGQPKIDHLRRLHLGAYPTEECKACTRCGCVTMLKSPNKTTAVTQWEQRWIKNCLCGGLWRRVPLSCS

The target of the test “MED17” is B2.

B1: MED29 (natural protein, mouse (Mus musculus; endogenous in CH12), UniProt Q9DB91 1-199, looked up)
chain: MAAPQPQAAAVSSASGVSGPGSAGGPGPQQQPQPTQLVGSAQSGLLQQQQQDFDPVQRYKMLIPQLKESLQTLMKVAAQNLIQNTNIDNGQKSSDAPLQRFDKCLEEFYALCDQLELCLRLAHECLSQSCDSAKHSPTLVPTATKPDAVQPDSLPYPQYLAVIKAQITCAKDIHTALLDCANKVTGKTTAPSTGPGGSL
notes: MED29, Mus musculus, endogenous upper Tail subunit of Mediator; source: endogenous, CH12 mouse B lymphoma nuclear extract; immunopurified as part of Mediator (FLAG M2 agarose, FLAG peptide elution)
B1: the binding result with MED15, in the test with MED27 and with MED16 was “binds” in each case.

B2: the binding result in the test with MED15 is listed as “binds”.

As to B3, the binding result with MED15, with MED16 and with MED17 was “binds” in each case.
